Results taken from EP4717706A1.
Substitutions are numbered along the chain they refer to. Numbers in names are those of the source.

B1: AVR8g with Y331H, F379S, K467N, A491T (receptor)
chain: MGSAGESDQITLPKNEVQLNAHVLQEPPKGETCTYDWQLITHPRDYSGEMEGEHSQILKLSNLTPGLYESKVIVEGQNAHSEGYVNVTVEPEPRKNRPPIAIVSPQFQEISLPTTSTVIDGSQSTDDDKIVQYHWEELKGPLREEKISEDTAILKLSNLVPGNYTFRLTVVDSDGATDSTTTNLTVNKAVDHHHHHH
B2: AVR28 (AVR25c with I366F, V394A, K455R) (receptor)
chain: MGSAGESDQITLPKHEAQLKVYVLLVPPKGEASTYDWQLITHPRDYSGEMEGEHSQFLKLSNLTPGLYEYRAVVEGQNAHSEGYANVTVEPGPRKNRPPIAIVSPQFQEISLPTTSAVIDGSQSTDDDKIVQYHWEELKGPLREERISEDTPILKLSNLVPGNYTFRLTVVDTDGATDSTTADLTVNKAVDHHHHHH
B3: AVR27b (AVR25c with I366F, T474R) (receptor)
chain: B2 chain with A85V, R146K, T165R
B4: AVR31 (AVR25c with G314D, I366F, V394A, K455R, K497E, V499I) (receptor)
chain: B2 chain with G5D, K188E, V190I
B5: AVR27d (AVR25c with K455R, T474R) (receptor)
chain: B2 chain with F57I, A85V, T165R
B6: AVR29c (AVR25c with I366F, V394A, K455R, K497E) (receptor)
chain: B2 chain with K188E
B7: AVR25c (AVR25a with K467N) (receptor)
chain: B2 chain with F57I, A85V, R146K
B8: AVR29b (AVR25c with G314D, I366F, V394A, K455R) (receptor)
chain: B2 chain with G5D
B9: AVR29d (AVR25c with I366F, V394A, K455R, V499I) (receptor)
chain: B2 chain with V190I
B10: AVR25a (AVR21 with N329K, E401G, T426A, A461P) (receptor)
chain: B2 chain with F57I, A85V, R146K, N158Q
B11: AVR29a (AVR25c with I366F, V394A, K455R, T474R) (receptor)
chain: B2 chain with T165R
B12: AVR27c (AVR25c with V394A, T474R) (receptor)
chain: B2 chain with F57I, R146K, T165R
B13: AAV-binding protein AVR21 (receptor)
chain: B2 chain with K20N, F57I, A85V, G92E, A117T, R146K, P152A, N158Q

Experiments:
[1] = target: VLP2 (virus-like particles, capsid protein particles of AAV serotype 2) (AAV serotype 2 (AAV2)) (UniProt P03135); experiment: ELISA on immobilised VLP2 (culture supernatant); A450 after 1:1 0.1 M glycine-NaOH pH 10.0, 15 min, 51.3°C divided by A450 untreated
[2] = target: VLP2 (virus-like particles, capsid protein particles of AAV serotype 2) (AAV serotype 2 (AAV2)) (UniProt P03135); experiment: ELISA on immobilised VLP2 (purified protein, 5 µg/mL); start of alkali treatment, the reference of the ratio
[3] = target: VLP2 (virus-like particles, capsid protein particles of AAV serotype 2) (AAV serotype 2 (AAV2)) (UniProt P03135); experiment: ELISA on immobilised VLP2 (culture supernatant); A450 after 1:1 1 M NaOH, 15 min, 30°C divided by A450 untreated
[4] = target: VLP2 (virus-like particles, capsid protein particles of AAV serotype 2) (AAV serotype 2 (AAV2)) (UniProt P03135); experiment: ELISA on immobilised VLP2 (purified protein, 5 µg/mL); A450 after 1:1 1 M NaOH with 1 mM CaCl2, 30°C, 30 min divided by A450 at 0 time
[5] = target: VLP2 (virus-like particles, capsid protein particles of AAV serotype 2) (AAV serotype 2 (AAV2)) (UniProt P03135); experiment: ELISA on immobilised VLP2 (purified protein, 5 µg/mL); A450 after 1:1 1 M NaOH with 1 mM CaCl2, 30°C, 60 min divided by A450 at 0 time
[6] = target: VLP2 (virus-like particles, capsid protein particles of AAV serotype 2) (AAV serotype 2 (AAV2)) (UniProt P03135); experiment: ELISA on immobilised VLP2 (purified protein, 5 µg/mL); A450 after 1:1 1 M NaOH with 1 mM CaCl2, 30°C, 20 min divided by A450 at 0 time
[7] = target: VLP2 (virus-like particles, capsid protein particles of AAV serotype 2) (AAV serotype 2 (AAV2)) (UniProt P03135); experiment: ELISA on immobilised VLP2 (purified protein, 5 µg/mL); A450 after 1:1 1 M NaOH with 1 mM CaCl2, 30°C, 60 min divided by A450 at 0 time; remark: listed apart in the source
[8] = target: VLP2 (virus-like particles, capsid protein particles of AAV serotype 2) (AAV serotype 2 (AAV2)) (UniProt P03135); experiment: ELISA on immobilised VLP2 (purified protein, 5 µg/mL); A450 after 1:1 1 M NaOH with 1 mM CaCl2, 30°C, 30 min divided by A450 at 0 time; remark: listed apart in the source
[9] = target: VLP2 (virus-like particles, capsid protein particles of AAV serotype 2) (AAV serotype 2 (AAV2)) (UniProt P03135); experiment: ELISA on immobilised VLP2 (purified protein, 5 µg/mL); A450 after 1:1 1 M NaOH with 1 mM CaCl2, 30°C, 60 min divided by A450 at 0 time; remark: listed apart in the source
[10] = target: VLP2 (virus-like particles, capsid protein particles of AAV serotype 2) (AAV serotype 2 (AAV2)) (UniProt P03135); experiment: ELISA on immobilised VLP2 (purified protein, 5 µg/mL); A450 after 1:1 1 M NaOH with 1 mM CaCl2, 30°C, 30 min divided by A450 at 0 time; remark: listed apart in the source
[11] = target: VLP2 (virus-like particles, capsid protein particles of AAV serotype 2) (AAV serotype 2 (AAV2)) (UniProt P03135); experiment: ELISA on immobilised VLP2 (purified protein, 5 µg/mL); A450 after 1:1 1 M NaOH with 1 mM CaCl2, 30°C, 45 min divided by A450 at 0 time
[12] = target: VLP2 (virus-like particles, capsid protein particles of AAV serotype 2) (AAV serotype 2 (AAV2)) (UniProt P03135); experiment: ELISA on immobilised VLP2 (purified protein, 5 µg/mL); A450 after 1:1 1 M NaOH with 1 mM CaCl2, 30°C, 30 min divided by A450 at 0 time; remark: listed apart in the source
[13] = target: VLP2 (virus-like particles, capsid protein particles of AAV serotype 2) (AAV serotype 2 (AAV2)) (UniProt P03135); experiment: ELISA on immobilised VLP2 (purified protein, 5 µg/mL); A450 after 1:1 1 M NaOH with 1 mM CaCl2, 30°C, 60 min divided by A450 at 0 time; remark: listed apart in the source
[14] = target: VLP2 (virus-like particles, capsid protein particles of AAV serotype 2) (AAV serotype 2 (AAV2)) (UniProt P03135); experiment: ELISA on immobilised VLP2 (purified protein, 5 µg/mL); A450 after 1:1 1 M NaOH with 1 mM CaCl2, 30°C, 20 min divided by A450 at 0 time; remark: listed apart in the source
[15] = target: VLP2 (virus-like particles, capsid protein particles of AAV serotype 2) (AAV serotype 2 (AAV2)) (UniProt P03135); experiment: ELISA on immobilised VLP2 (purified protein); start of alkali treatment, the reference of the ratio
[16] = target: VLP2 (virus-like particles, capsid protein particles of AAV serotype 2) (AAV serotype 2 (AAV2)) (UniProt P03135); experiment: ELISA on immobilised VLP2 (purified protein); A450 after 1:1 0.5 M NaOH, 30°C, 30 min divided by A450 at 0 time
[17] = target: VLP2 (virus-like particles, capsid protein particles of AAV serotype 2) (AAV serotype 2 (AAV2)) (UniProt P03135); experiment: ELISA on immobilised VLP2 (purified protein); A450 after 1:1 0.5 M NaOH, 30°C, 90 min divided by A450 at 0 time
[18] = target: VLP2 (virus-like particles, capsid protein particles of AAV serotype 2) (AAV serotype 2 (AAV2)) (UniProt P03135); experiment: ELISA on immobilised VLP2 (purified protein); A450 after 1:1 0.5 M NaOH, 30°C, 30 min divided by A450 at 0 time; remark: listed apart in the source
[19] = target: VLP2 (virus-like particles, capsid protein particles of AAV serotype 2) (AAV serotype 2 (AAV2)) (UniProt P03135); experiment: ELISA on immobilised VLP2 (purified protein); A450 after 1:1 0.5 M NaOH, 30°C, 60 min divided by A450 at 0 time
[20] = target: VLP2 (virus-like particles, capsid protein particles of AAV serotype 2) (AAV serotype 2 (AAV2)) (UniProt P03135); experiment: ELISA on immobilised VLP2 (culture supernatant, anti-His detection); A450 after 1:1 0.5 M NaOH, 30 min, 30°C divided by A450 untreated

Sequence of UniProt P03135 (P03135 whole entry): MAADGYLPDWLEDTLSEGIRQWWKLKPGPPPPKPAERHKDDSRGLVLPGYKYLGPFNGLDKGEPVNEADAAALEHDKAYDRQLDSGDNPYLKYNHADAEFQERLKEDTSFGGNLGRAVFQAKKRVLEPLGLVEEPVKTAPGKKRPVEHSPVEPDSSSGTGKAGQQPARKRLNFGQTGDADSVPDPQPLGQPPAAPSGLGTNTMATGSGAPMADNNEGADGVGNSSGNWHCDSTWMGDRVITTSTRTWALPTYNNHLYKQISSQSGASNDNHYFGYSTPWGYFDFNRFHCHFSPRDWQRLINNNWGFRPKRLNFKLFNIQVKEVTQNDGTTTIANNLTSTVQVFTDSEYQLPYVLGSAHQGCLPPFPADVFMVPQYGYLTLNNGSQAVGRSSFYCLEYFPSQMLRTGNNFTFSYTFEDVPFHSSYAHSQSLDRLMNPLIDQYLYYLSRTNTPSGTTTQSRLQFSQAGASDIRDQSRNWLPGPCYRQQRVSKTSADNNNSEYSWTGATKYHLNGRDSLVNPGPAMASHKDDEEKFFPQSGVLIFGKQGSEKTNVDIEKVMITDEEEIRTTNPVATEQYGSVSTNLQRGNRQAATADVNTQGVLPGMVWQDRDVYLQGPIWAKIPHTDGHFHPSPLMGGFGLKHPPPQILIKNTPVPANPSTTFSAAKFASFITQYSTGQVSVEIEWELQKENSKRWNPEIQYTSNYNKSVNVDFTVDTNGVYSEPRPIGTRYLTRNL

| Binder | Remaining activity [%] [2] | Remaining activity [%] [6] | Remaining activity [%] [7] | Remaining activity [%] [8] | Remaining activity [%] [9] | Remaining activity [%] [10] | Remaining activity [%] [11] | Remaining activity [%] [14] | also measured |
| --- | --- | --- | --- | --- | --- | --- | --- | --- | --- |
| B1 |  |  |  |  |  |  |  |  | Remaining activity [%] [1]: 28.1% |
| B2 | 100% | 42.5% | 1.22% | 42% | 6.29% |  |  |  | Remaining activity [%] [3]: 71.9%; Remaining activity [%] [4]: 22.5%; Remaining activity [%] [5]: 3% |
| B3 | 100% |  |  |  |  | 17.1% | 4.54% |  |  |
| B4 | 100% |  |  | 48.3% | 10.6% |  |  |  | Remaining activity [%] [12]: 53.8%; Remaining activity [%] [13]: 13.3% |
| B5 | 100% |  |  |  |  | 15.8% | 5.11% |  |  |
| B6 | 100% | 93.2% | 2.39% | 57.7% | 15.7% |  | 1.93% | 78.7% |  |
| B7 | 100% |  |  | 22% | 2.19% | 5.28% | 0% | 12.1% | Remaining activity [%] [15]: 100%; Remaining activity [%] [16]: 91.2%; Remaining activity [%] [17]: 66.9%; Remaining activity [%] [3]: 33.5%; Remaining activity [%] [4]: 2.87%; Remaining activity [%] [5]: 0.197%; Remaining activity [%] [12]: 16.3%; Remaining activity [%] [13]: 1.96% |
| B8 | 100% | 63.7% | 1.08% |  |  |  | 1.31% | 58.7% |  |
| B9 | 100% | 68.6% | 1.06% |  |  |  | 4.47% | 63% |  |
| B10 |  |  |  |  |  |  |  |  | Remaining activity [%] [15]: 100%; Remaining activity [%] [18]: 100%; Remaining activity [%] [19]: 47.9%; Remaining activity [%] [16]: 62.3%; Remaining activity [%] [17]: 0% |
| B11 | 100% |  |  |  |  |  |  |  | Remaining activity [%] [4]: 24.2%; Remaining activity [%] [5]: 5.07% |
| B12 | 100% |  |  |  |  | 13.6% | 1.73% |  |  |
| B13 | 100% |  |  |  |  |  |  |  | Remaining activity [%] [15]: 100%; Remaining activity [%] [18]: 16.9%; Remaining activity [%] [19]: 0%; Remaining activity [%] [20]: 26.2%; Remaining activity [%] [12]: 1.53%; Remaining activity [%] [13]: 0.694% |
